Reference: patent US10973880B2, “Compositions and methods for treating pulmonary hypertension” (Acceleron Pharma Inc., priority 2016, dated 2021)
Positions count from the first letter of the chain named. Names may count otherwise. Blank lines part the entries; values can stand above or below the molecule they belong to.

Legend:
[1] = system: rat model of pulmonary arterial hypertension (PAH), monocrotaline (MCT) induced; assay: monocrotaline rat model of pulmonary arterial hypertension; assay type: in vivo, Sprague Dawley rats
Method: The effects of an ActRIIA-mFc fusion protein (ActRIIA-mFc homodimer as described in Example 1), an ALK4-Fc-ActRIIB-Fc heterodimer (as described in Examples 12 and 13), and sildenafil (a phosphodiesterase-5 inhibitor approved for the treatment of PAH) were examined in a rat model of pulmonary arterial hypertension (PAH). In this model, Sprague Dawley rats received a […] injection of monocrotaline (MCT) to induce PAH 24 hours prior to start of therapy.
Rats were separated into different treatment groups (10 mice per group): 1) treatment with MCT (60 mg/kg administered i.p. as a single dose at day 1 of study) and Tris buffered saline (i.p. as 1 ml/kg, every three days) (vehicle treatment group), 2) treatment with an ActRIIA-mFc polypeptide (10 mg/kg administered i.p. every three days) and MCT (60 mg/kg administered i.p. as a single dose at day 1 of study), 3) treatment with an ALK4-Fc:ActRIIB-Fc heterodimer (10 mg/kg administered i.p. every three days) and MCT (60 mg/kg administered i.p. as a single dose at day 1 of study), 4) treatment with sildenafil (30 mg/kg administered orally twice daily) and MCT (60 mg/kg administered i.p. as a single dose at day 1 of study), and 5) control rats (Tris buffered saline administered i.p. as 1 ml/kg, every three days). Rats were treated for 28 days. Body weights were recorded prior to first dose on Day 1 and then weekly throughout the study.
On day 28, rats were anesthetized by an intraperitoneal injection of ketamine/xylazine (80/10 mg/kg). An incision was made in the neck, and a jugular vein was isolated and ligated anteriorly. A fluid-filled pressure catheter was introduced into the right jugular vein to measure pulmonary artery pressure (PAP). Another incision was made in the inguinal region, and femoral artery was isolated and ligated anteriorly. A Millar pressure catheter was introduced into a femoral artery to measure systolic arterial pressure, diastolic pressure, and heart rate. Mean arterial pressure and right PAP were monitored using the Notocord HEM (Croissy sur Seine, Frnace) v3.5 data capture system for approximately 5-10 minutes until stable measurements were obtained. During the measurements, rats were maintained at approximately 37° C. on a heating pad and body temperature was monitored throughout the procedure with a rectal temperature probe. At the conclusion of the procedure, rats were euthanized, and the hearts and lungs were removed. The entire heart was weighed. Next, the atria were removed and the left ventricle with septum (LV+S) was separated from the right ventricle (RV). The ventricles were weighed separately. Hypertrophy was assessed, in part, by calculating RV/LV+S. The lungs were also weighed.
Similar trends were observed on vessel muscularity based on histopathologic scoring. After staining tissue samples to detect αSMA/elastin, 100 pulmonary arterioles, between 10 μm and 50 μm in size, per animal were categorized as non-muscularized, partially muscularized, or completely muscularized. Pulmonary arterioles from vehicle treated rats were determined to be 62.3% completely muscularized, 36.4% partially muscularized, and 1.4% non-muscularized. […] Histopathological scoring of smooth muscle hypertrophy of pulmonary arterioles were also recorded as follows: 0 (normal), 1 (minimal), 2 (mild), 3 (moderate), or 4 (marked).

GDF8 = target: T1, GDF8 (Homo sapiens, UniProt O14793); assay: Biacore assay, receptor captured with anti-hFc antibody; assay type: binding
T1 sequence (O14793 267-375): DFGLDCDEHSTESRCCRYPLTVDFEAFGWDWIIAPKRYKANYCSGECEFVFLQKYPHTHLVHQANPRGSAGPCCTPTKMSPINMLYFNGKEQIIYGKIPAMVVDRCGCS
Method: (§1) Binding of certain ActRIIB-Fc proteins and GDF traps to ligands was tested in a Biacore assay.
(§2) The ActRIIB-Fc variants or wild-type protein were captured onto the system using an anti-hFc antibody. Ligands were injected and flowed over the captured receptor proteins.

activin A = target: T2, activin A (Homo sapiens, UniProt P08476); assay: as above; assay type: binding
T2 sequence (P08476 311-426): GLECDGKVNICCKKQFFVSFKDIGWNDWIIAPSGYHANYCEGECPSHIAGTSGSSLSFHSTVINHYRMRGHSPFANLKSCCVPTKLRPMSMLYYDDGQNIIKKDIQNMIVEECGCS
Method: as §1, §2

activin A (ActA) = target: T3, activin A (ActA) (Homo sapiens, UniProt P08476); settings: reproduced from WO2006/012627; cited from earlier work
T3 sequence (P08476 311-426): T2 sequence (P08476 311-426)

GDF11 = target: T4, GDF11 (Homo sapiens, UniProt O95390); settings: reproduced from WO2006/012627; cited from earlier work
T4 sequence (O95390 299-407): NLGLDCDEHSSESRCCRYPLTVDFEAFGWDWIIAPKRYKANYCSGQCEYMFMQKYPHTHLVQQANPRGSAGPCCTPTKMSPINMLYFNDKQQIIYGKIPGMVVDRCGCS

Molecule: CCCc1nn(C)c2c(=O)[nH]c(-c3cc(S(=O)(=O)N4CCN(C)CC4)ccc3OCC)nc12 [sildenafil, reference compound]
smooth muscle hypertrophy of pulmonary arterioles, average histopathological score ([1]; 0 normal, 1 minimal, 2 mild, 3 moderate, 4 marked): 3 score
improvement in body weight ([1]; 28 days, compared to monocrotaline treated rats, proteins 10 mg/kg i.p. every three days, sildenafil 30 mg/kg orally twice daily): did not have any improvement

Koff, GDF8 (GDF8): 0.000209 s⁻¹
Koff, Activin A (activin A): 0.000628 s⁻¹
Kon, Activin A (activin A): 7.46e+06 M⁻¹ s⁻¹
B1: ActRIIB(R64K 20-129)-hFc: ActRIIB(20-129)-hFc variant with R64K mutation (protein)
chain: GRGEAETRECIYYNANWELERTNQSGLERCEGEQDKRLHCYASWKNSSGTIELVKKGCWLDDFNCYDRQECVATEENPQVYFCCCEGNFCNERFTHLPEAGGPEVTYEPPGGGTHTCPPCPAPELLGGPSVFLFPPKPKDTLMISRTPEVTCVVVDVSHEDPEVKFNWYVDGVEVHNAKTKPREEQYNSTYRVVSVLTVLHQDWLNGKEYKCKVSNKALPVPIEKTISKAKGQPREPQVYTLPPSREEMTKNQVSLTCLVKGFYPSDIAVEWESNGQPENNYKTTPPVLDSDGSFFLYSKLTVDKSRWQQGNVFSCSVMHEALHNHYTQKSLSLSPGK

B2: D54A: soluble ActRIIB-Fc variant D54A (protein)
chain: SGRGEAETRECIYYNANWELERTNQSGLERCEGEQAKRLHCYASWANSSGTIELVKKGCWLDDFNCYDRQECVATEENPQVYFCCCEGNFCNERFTHLPEA
modifications: left off: a dimerising Fc or GST
ActA binding relative to WT (activin A (ActA)): − (~1/2 WT binding)

B3: K55A: soluble ActRIIB-Fc variant K55A (protein)
chain: B2 chain with A36D, K37A
modifications: left off: a dimerising Fc or GST
ActA binding relative to WT (activin A (ActA)): ++ (<2× increased binding)

B4: WT (64A): soluble ActRIIB-Fc, wild type with alanine at position 64 (WO2006/012627) (protein)
chain: B2 chain with A36D
modifications: left off: a dimerising Fc or GST
ActA binding relative to WT (activin A (ActA)): (+) (WT)
GDF11 binding relative to WT (GDF11): (+) (WT)

B5: F82A: soluble ActRIIB-Fc variant F82A (protein)
chain: B2 chain with A36D, F64A
modifications: left off: a dimerising Fc or GST
ActA binding relative to WT (activin A (ActA)): ++ (<2× increased binding)
GDF11 binding relative to WT (GDF11): − (~1/2 WT binding)

B6: L79A: soluble ActRIIB-Fc variant L79A (protein)
chain: B2 chain with A36D, L61A
modifications: left off: a dimerising Fc or GST
ActA binding relative to WT (activin A (ActA)): + (WT)

B7: K74A: soluble ActRIIB-Fc variant K74A (WO2006/012627 table) (protein)
chain: B2 chain with A36D, K56A
modifications: left off: a dimerising Fc or GST
ActA binding relative to WT (activin A (ActA)): +++++ (~40× increased binding)
GDF11 binding relative to WT (GDF11): +++++ (~40× increased binding)

B8: R40A: soluble ActRIIB-Fc variant R40A (protein)
chain: B2 chain with R22A, A36D
modifications: left off: a dimerising Fc or GST
ActA binding relative to WT (activin A (ActA)): − (~1/2 WT binding)
GDF11 binding relative to WT (GDF11): − (~1/2 WT binding)

Koff, GDF8 (GDF8): 0.00018 s⁻¹
Koff, Activin A (activin A): 0.000417 s⁻¹
Kon, Activin A (activin A): 5.02e+06 M⁻¹ s⁻¹
B9: ActRIIB(P129S, P130R 20-134)-hFc: ActRIIB(20-134)-hFc variant with P129S and P130R mutations (protein)
chain: GRGEAETRECIYYNANWELERTNQSGLERCEGEQDKRLHCYASWRNSSGTIELVKKGCWLDDFNCYDRQECVATEENPQVYFCCCEGNFCNERFTHLPEAGGPEVTYEPSRTAPTGGGTHTCPPCPAPELLGGPSVFLFPPKPKDTLMISRTPEVTCVVVDVSHEDPEVKFNWYVDGVEVHNAKTKPREEQYNSTYRVVSVLTVLHQDWLNGKEYKCKVSNKALPVPIEKTISKAKGQPREPQVYTLPPSREEMTKNQVSLTCLVKGFYPSDIAVEWESNGQPENNYKTTPPVLDSDGSFFLYSKLTVDKSRWQQGNVFSCSVMHEALHNHYTQKSLSLSPGK

Koff, GDF8 (GDF8): 2.03e-05 s⁻¹
B10: ActRIIB(K74A 20-134)-hFc: ActRIIB(20-134)-hFc variant with K74A mutation (protein)
chain: B9 chain with K55A, S110P, R111P

B11: +15tail: soluble ActRIIB-Fc variant labelled +15tail (WO2006/012627) (protein)
chain: SGRGEAETRECIYYNANWELERTNQSGLERCEGEQDKRLHCYASWANSSGTIELVKKGCWLDDFNCYDRQECVATEENPQVYFCCCEGNFCNERFTHLPEAGGPEVTYEPPPTAPT
modifications: left off: a dimerising Fc or GST
ActA binding relative to WT (activin A (ActA)): (+++) (~5× increased binding)
GDF11 binding relative to WT (GDF11): (++++) (~10× increased binding)
Kd (GDF11): 19 nM
